Reference: patent publication US20260167679A1, “FUSION PROTEIN TARGETING MITOCHONDRIA, METHOD OF MAKING AND USE THEREOF” (UNIVERSITY OF ROCHESTER, priority 2020, published 2026)

How the values were obtained:
[1] = tested on: isolated C. elegans mitochondria; test: Mitochondrial membrane potential measurement (TMRE) in isolated mitochondria; assay type: biochemical, Caenorhabditis elegans; details: mtON activation (+ATR, +light), rotenone, no added substrate, non-phosphorylating
Description: Isolated mitochondria at 0.5 mg/ml were stirred in mitochondrial respiration buffer (MRB: 120 mM KCl, 25 mM sucrose, 5 mM MgCl2, 5 mM KH2PO4, 1 mM EGTA, 10 mM HEPES, 1 mg/ml FF-BSA, pH 7.35) at 25° C. in the presence of 2 μM rotenone and 5 mM succinate where indicated. 300 nM tetramethylrhodamine ethyl ester (TMRE, Thermo Fisher, T669) was added to observe mitochondrial membrane potential in quench mode. Under quenching conditions, TMRE fluorescence is low in the presence of a AWm. Upon addition of a protonophore (e.g., FCCP), TMRE will exit mitochondria and dequench and increase total fluorescence. TMRE signal was measured by Cary Eclipse Fluorescence Spectrophotometer (Agilent Technologies) using a 335-620 nm excitation filter and a 550-1,100 nm emission. […] Increasing illumination time exposed mitochondria to more photons (calculated as fluence, J/cm^2). […] The average fluorescence intensity after addition of 2 μM FCCP (maximum fluorescence in quench mode) was subtracted from the starting test condition to give a change in fluorescence corresponding to changes in ΔΨm (ΔF for conditions without succinate, and ΔFmax for conditions with succinate). To represent polarization of the ΔWm, the ratio of change in fluorescence (DF, FCCP fluorescence minus experimental fluorescence) was used to the maximum change in fluorescence generated by succinate-driven Δψm (ΔFmax).

[2] = tested on: isolated C. elegans mitochondria; test: ATP measurement in isolated mitochondria (luciferase); assay type: biochemical, Caenorhabditis elegans; details: isolated mitochondria supplied with ADP, mtON activation
Description: Relative ATP levels were determined in isolated mitochondria given a known amount of ADP to test the ability of mtON to drive ATP synthesis. A luciferase bioluminescence kit was used according to the manufacturer's instructions (Invitrogen™ Molecular Probes™, A22066). Mitochondria were stirred in MRB at 0.5 mg/ml with 1 mg/ml fat-free BSA, 600 μM ADP, and 2 μM rotenone. 5 mM succinate was used for a control for maximum ATP level, and 0.001 mg/ml oligomycin A was used as a zero ATP synthesis control. Mitochondrial suspensions were immediately frozen with liquid nitrogen after 1, 5, or 10 min light exposure (XCite LED, 0.02 mW/mm^2). Samples were then thawed on ice, centrifuged at 14,800 g, and supernatant was collected and run at 1:100 dilution in MRB in the luminescence assay. Oligomycin A control values were subtracted from experimental reads, and data were then normalized to luminescent signal from succinate control samples (complete ADP conversion confirmed by monitoring 02 consumption rate transitions).

C. elegans [3] = test: Healthspan: mobility on solid media and in liquid with age; assay type: in vivo, Caenorhabditis elegans
Source text: Light treatment began at day 1 of adulthood for all experiments, a, Survival curves of mtON-expressing animals (extrachromosomal array). […] One-way ANOVA with Tukey's test; n=30 animals for day 4 conditions and 40 animals for day 10. […] One-way ANOVA with Tukey's test, day 10 no ATR light versus day 10 ATR light; P=0.002, all other significant comparisons, P=0.0001; n=32, 32, 40 and 40 animals for each violin from left to right. Data are median±quartiles. f, Model showing effects of mtON activation in vivo. The dotted arrow represents the molecular mechanisms to be investigated that link Δψm to aged physiology.

C. elegans [4] = test: ETC inhibitor assays, survival of animals; assay type: in vivo, Caenorhabditis elegans
Description: Experiments were performed on at least three separate days, using 15-100 young adult animals per plate. Seeded plates were supplemented with rotenone (50 μM final concentration), antimycin A (50 μM final concentration), or oligomycin A (31 μM final concentration) 24 h before animals were transferred onto them. For azide toxicity, animals were placed in M9 buffer with 250 mM azide. Control plates were kept in the dark, and experimental plates were exposed to 1 Hz light (Quantum LED, 0.02 mW/mm^2) for the duration of the experiment. For all toxins, animals that were moving or those that moved in response to a light touch to the head were scored as alive. For rotenone, surviving animals were scored after 5 h. For antimycin A, animals were scored 16 h after exposure. For azide, animals were exposed for 1 h in M9 and allowed to recover for 1 h on a seeded culture plate and then survival was scored. Azide experimental plates were exposed to light (XCite LED, 0.19 mW/mm^2) for the duration of azide treatment and recovery. […]. For oligomycin A, animals were scored 18 h after exposure.
Experiments were carried out using a hypoxic chamber (Coy Laboratory Products, 5%/95% H2/N2 gas, palladium catalyst) at 26° C. with 50-100 animals per plate. O2 was <0.01%. Hypoxic preconditioning (PC) duration was 4 h, and control animals were incubated at 26° C. in room air for the same time. 1 Hz illumination (Quantum LED, 0.02 mW/mm^2) was carried out during PC period or during the hypoxic period. Hypoxic exposure was for 18.5, 21 h after PC. Twenty-four hours after hypoxia exposure, animals that were moving or those that moved in response to a light touch to the head were scored as alive. Data from days where PC was at least 15% effective for both +ATR and −ATR were used. Animals supplemented with ATR were allowed to lay eggs onto plates with no ATR that were subsequently used for HR experiments to minimize confounding effects of ATR. ATR from the parent animal was sufficient to provide active mtON in progeny as tested by the azide toxin assay described above. […] FCCP dissolved in ethanol was deposited onto seeded NGM plates.

B1: mtON: fusion of the 187 N-terminal amino acids of mouse IMMT1 to the light-activated proton pump (Mac) from Leptosphaeria maculans (protein)
chain: MLRACQLSGVTVAAQSCLCGKFVLRPLRPCRRYSTSSSSGLTAGKIAGAGLLFVGGGIGGTILYAKWDSHFRESVEKTIPYSDKLFGMVLGSAPYTVPLPKKPVQSGPLKISSVSEVMKDSKLPVAQSQKTKGDTPASAASTGAAQIISAAGDTLSVPAPAVQHEDTIKTECPNTNEGKSTSETTEEPAGLIVDQFEEVLMKTSQLFPLPTATQSAQPTHVAPVPTVLPDTPIYETVGDSGSKTLWVVFVLMLIASAAFTALSWKIPVNRRLYHVITTIITLTAALSYFAMATGHGVALNKIVIRTQHDHVPDTYETVYRQVYYARYIDWAITTPLLLLDLGLLAGMSGAHIFMAIVADLIMVLTGLFAAFGSEGTPQKWGWYTIACIAYIFVVWHLVLNGGANARVKGEKLRSFFVAIGAYTLILWTAYPIVWGLADGARKIGVDGEIIAYAVLDVLAKGVFGAWLLVTHANLRESDVELNGFWANGLNREGAIRIGEDDGAR
modifications: Synthetic Complete mtON fusion protein sequence
With B1 the “polarization of Δψm (TMRE)” value [1] was “polarize the Δψm as much as ETC-driven respiration”, the ATP levels [2] was “increased ATP levels” and the “locomotion on solid media” value (C. elegans [3]; day 4 and day 10, mtON activation) was “did not affect locomotion”. For the same molecule, the “mobility in liquid with age” value (C. elegans [3]; day 10, mtON activation) was “improved mobility”, the survival (C. elegans [4]; 31 μM oligomycin A, scored 18 hours later) was “No significant differences” and the survival (C. elegans [4]; 50 μM rotenone for 5 hours, +ATR +light) was “greater than the ATR alone effect”. For the same molecule, the survival (C. elegans [4]; azide toxin assay, progeny of ATR-supplemented parents, +ATR +light) was 66.8% and the “survival of animals exposed to ETC toxins” value (C. elegans [4]; mtON active vs controls) was “survived more”.
